{"source": "paper doi:10.1101/2025.09.09.675230", "biological_target": "Measles virus fusion protein (F) ectodomain, prefusion-stabilized with E170G and E455G (FECT 2M) (Measles virus strain Ichinose-B95a)", "assay": "cryo-EM structure"}
{"substance": "Measles virus fusion protein (F) ectodomain, prefusion-stabilized with E170G and E455G (FECT 2M) (domain or fragment)", "values": [{"measurement": "stoichiometry N", "result": 3}]}
